B1: CCNC (parent)
chain: QSSHYLQWILDKQDLLKERQKDLK
B2: HDAC6 (parent)
chain: KMKTRELHRESSNFDSIYICPSTF

Variants of: B1
Experiment: protein stability index of a GFP-peptide fusion (GPS, HEK-293T) (PSI 1-6); higher = more stable
Conditions: c terminus: a fixed tail appended
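Further: lentivirally expressed fusions sorted by FACS into six bins by GFP to DsRed ratio, PSI derived from sequencing read proportions per bin multiplied by bin number.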

Row | Variant | protein stability index
1 | Y5K | 3.43
2 | Y5T | 3.7
3 | Y5N | 3.8
4 | Y5R | 3.38
5 | Y5M | 2.83
6 | Y5I | 2.81
7 | Y5E | 3.21
8 | Y5C | 3.61
9 | Y5H | 3.93
10 | Y5A | 2.59
11 | Y5P | 4.47
12 | Y5W | 2.53
13 | Y5S | 4.56
14 | Y5F | 2.77
15 | Y5Q | 4.29
16 | Y5L | 2.02
17 | Y5V | 3.28
18 | Y5G | 3.74
19 | Y5D | 4.45
20 | Q13S | 2.91
21 | Q13G | 2.94
22 | Q13R | 2.6
23 | Q13T | 2.7
24 | Q13H | 2.5
25 | Q13M | 2

Row | Variant | protein stability index
26 | Q13D | 3.82
27 | Q13K | 3.49
28 | Q13P | 3.36
29 | Q13L | 1.85
30 | Q13F | 2.34
31 | Q13Y | 2.42
32 | Q13E | 2.71
33 | Q13W | 2.36
34 | Q13N | 3.74
35 | Q13V | 2.76
36 | Q13C | 3.1
37 | Q13A | 2.74
38 | Q13I | 2.59
39 | L6N | 4.03
40 | L6E | 5.2
41 | L6H | 3.69
42 | L6A | 3.83
43 | L6I | 2.83
44 | L6P | 4.53
45 | L6Y | 2.77
46 | L6S | 3.99
47 | L6C | 3.71
48 | L6F | 3.52
49 | L6G | 4.11
50 | L6Q | 3.72

Row | Variant | protein stability index
51 | L6V | 3.7
52 | L6D | 4.14
53 | L6M | 3.21
54 | L6K | 3.92
55 | L6R | 3.54
56 | L6W | 2.96
57 | L6T | 3.2
58 | H4C | 2.22
59 | H4F | 1.88
60 | H4W | 2.65
61 | H4E | 3.5
62 | H4S | 3.2
63 | H4P | 2.72
64 | H4L | 2.34
65 | H4D | 3.55
66 | H4T | 2.79
67 | H4K | 2.54
68 | H4G | 3.03
69 | H4Q | 2.52
70 | H4R | 2.39
71 | H4I | 2.09
72 | H4Y | 3.21
73 | H4A | 3
74 | H4M | 3.97
75 | H4N | 3.27

Row | Variant | protein stability index
76 | H4V | 2.5
77 | S2N | 3.15
78 | S2F | 1.1
79 | S2I | 2.07
80 | S2E | 3.3
81 | S2R | 2.39
82 | S2Y | 1.96
83 | S2W | 2.7
84 | S2M | 1.49
85 | S2V | 2.64
86 | S2A | 2.14
87 | S2L | 1.95
88 | S2K | 2.46
89 | S2T | 2.84
90 | S2P | 3.01
91 | S2G | 2.78
92 | S2H | 3.02
93 | S2C | 2.27
94 | S2Q | 2.9
95 | S2D | 3.46
96 | K12L | 1.72
97 | K12M | 1.92
98 | K12T | 2.01
99 | K12Y | 2.75
100 | K12S | 1.98

Row | Variant | protein stability index
101 | K12N | 2.79
102 | K12W | 1.52
103 | K12C | 2.46
104 | K12G | 2.41
105 | K12P | 3.29
106 | K12E | 3.66
107 | K12V | 2.34
108 | K12D | 4.21
109 | K12H | 2.83
110 | K12A | 2.73
111 | K12I | 1.71
112 | K12Q | 3.25
113 | K12F | 2.25
114 | L10P | 4.58
115 | L10Y | 3.42
116 | L10C | 3.86
117 | L10H | 3.52
118 | L10N | 4.17
119 | L10E | 4.29
120 | L10F | 3.4
121 | L10Q | 4.22
122 | L10K | 3.6
123 | L10A | 4.22
124 | L10R | 3.61
125 | L10T | 3.34

Row | Variant | protein stability index
126 | L10W | 2.54
127 | L10S | 4
128 | L10V | 3.09
129 | L10I | 2.97
130 | L10D | 4.49
131 | L10G | 3.76
132 | L10M | 3.41
133 | S3Y | 2.34
134 | S3D | 3.9
135 | S3E | 3.87
136 | S3K | 2.82
137 | S3G | 3.39
138 | S3V | 2.29
139 | S3T | 2.42
140 | S3H | 2.95
141 | S3C | 3.02
142 | S3F | 1.94
143 | S3M | 2.38
144 | S3L | 1.92
145 | S3I | 2.02
146 | S3N | 3.17
147 | S3W | 2.32
148 | S3Q | 2.68
149 | S3R | 3.04
150 | S3P | 3.22

Row | Variant | protein stability index
151 | S3A | 3.9
152 | W8N | 4.46
153 | W8I | 3.16
154 | W8V | 3.52
155 | W8P | 4.29
156 | W8S | 4.09
157 | W8M | 4.16
158 | W8H | 4.03
159 | W8T | 4.39
160 | W8D | 4.55
161 | W8F | 3.77
162 | W8G | 3.94
163 | W8Y | 4.5
164 | W8R | 4.18
165 | W8C | 3.89
166 | W8A | 4.42
167 | W8K | 3.87
168 | W8L | 3.41
169 | W8E | 4.35
170 | W8Q | 3.96
171 | I9M | 3.53
172 | I9A | 4.27
173 | I9D | 4.82
174 | I9N | 4.01
175 | I9H | 3.64

Row | Variant | protein stability index
176 | I9E | 4.87
177 | I9G | 3.67
178 | I9Y | 3.32
179 | I9S | 4
180 | I9P | 4.6
181 | I9L | 3.36
182 | I9T | 3.74
183 | I9C | 3.9
184 | I9Q | 4.21
185 | I9R | 4.12
186 | I9V | 3.09
187 | I9K | 4.09
188 | I9W | 3.83
189 | I9F | 3.98
190 | Q1V | 2.74
191 | Q1A | 2.78
192 | Q1Y | 2.53
193 | Q1D | 2.94
194 | Q1N | 3.13
195 | Q1H | 2.04
196 | Q1W | 1.44
197 | Q1E | 2.72
198 | Q1I | 2.28
199 | Q1P | 3.77
200 | Q1R | 3.1

Row | Variant | protein stability index
201 | Q1G | 3.6
202 | Q1K | 2.5
203 | Q1S | 3.16
204 | Q1C | 3.1
205 | Q1L | 2.78
206 | Q7S | 2.65
207 | Q7L | 2.22
208 | Q7P | 3.31
209 | Q7E | 2.73
210 | Q7D | 3.9
211 | Q7I | 1.94
212 | Q7K | 2.84
213 | Q7Y | 2.85
214 | Q7N | 2.84
215 | Q7W | 2.1
216 | Q7G | 3.23
217 | Q7A | 2.39
218 | Q7T | 3.66
219 | Q7R | 2.37
220 | Q7F | 1.57
221 | Q7C | 2.42
222 | Q7V | 1.97
223 | Q7M | 3.79
224 | Q7H | 3.58
225 | D11K | 3.09

Row | Variant | protein stability index
226 | D11T | 2.58
227 | D11Q | 3.39
228 | D11V | 2.86
229 | D11P | 3.13
230 | D11N | 2.83
231 | D11E | 3.4
232 | D11S | 3
233 | D11C | 2.96
234 | D11I | 2.26
235 | D11A | 3.01
236 | D11W | 2.38
237 | D11G | 2.75
238 | D11R | 2.1
239 | D11L | 2.72
240 | D11Y | 3.17
241 | D11M | 2.36
242 | D11H | 2.86
243 | D11F | 2

Variants of: B2
Experiment: as above
Conditions: c terminus: a fixed tail appended

Row | Variant | protein stability index
244 | S22F | 2.19
245 | S22Y | 1.98
246 | S22P | 2.65
247 | S22K | 3.33
248 | S22A | 2.14
249 | S22Q | 1.78
250 | S22W | 3.05
251 | S22G | 2.06
252 | S22C | 1.85
253 | S22N | 2.13
254 | S22E | 2.66
255 | S22V | 1.6
256 | S22I | 1.65
257 | S22T | 1.74
258 | S22L | 1.42
259 | S22M | 1.42
260 | S22R | 1.83
261 | S22D | 2.76
262 | S22H | 2.09
263 | I19W | 3.01
264 | I19V | 2.8
265 | I19Y | 2.16
266 | P21C | 2.71

Row | Variant | protein stability index
267 | P21E | 1.91
268 | P21A | 1.77
269 | P21R | 1.78
270 | P21N | 2.37
271 | P21K | 2.32
272 | P21V | 2.33
273 | P21H | 1.34
274 | P21F | 2.44
275 | P21D | 2.91
276 | P21T | 1.54
277 | P21S | 1.74
278 | P21G | 1.95
279 | P21Q | 1.94
280 | T23C | 2.5
281 | T23H | 2.28
282 | T23V | 2.92
283 | T23E | 1.96
284 | T23S | 2.59
285 | T23Y | 1.83
286 | T23L | 2.21
287 | T23G | 2.46
288 | T23P | 2.61
289 | T23R | 2.05

Row | Variant | protein stability index
290 | T23M | 2.44
291 | T23A | 2.16
292 | T23D | 2.56
293 | T23I | 1.71
294 | T23K | 2.25
295 | T23F | 1.96
296 | T23W | 1.62
297 | T23N | 3
298 | F24Q | 2.62
299 | F24E | 3.87
300 | F24T | 3.65
301 | F24A | 3.73
302 | F24H | 2.76
303 | F24P | 2.75
304 | F24V | 2.82
305 | F24M | 2.65
306 | F24Y | 2.88
307 | F24K | 3.36
308 | F24W | 2.65
309 | F24C | 2.97
310 | F24L | 2.69
311 | F24R | 2.98
312 | F24D | 3.99

Row | Variant | protein stability index
313 | F24S | 2.96
314 | F24I | 2.31
315 | F24G | 3.15
316 | F24N | 2.95
317 | C20N | 3.23
318 | C20Y | 2.07
319 | C20G | 2.22
320 | C20Q | 3.13
321 | C20I | 1.69
322 | C20S | 2.48
323 | C20M | 2.17
324 | C20V | 2.24
325 | C20T | 2.76
326 | C20D | 2.54
327 | C20K | 2.15
328 | C20P | 2.69
329 | C20L | 2.2
330 | C20H | 2.94
331 | C20E | 3.34
332 | C20F | 2.21
333 | C20R | 2.61
334 | C20A | 2.86

Reference: the supplement of paper PMC10567573
